We go through ten molecules from patent publication US20240383994A1.

The chains are these.
B1: A03 (antibody, V domains shown)
VH: DVQLQESGPDRVKPSQSLSLTCTVTGYSITSDYSWHWIRQFPGNKLEWMGYIYSSGHTYYNPSLKSRISFTRDTSKNQFFLQLNSVTTEDTATYYCAIYYYGRSYFDNWGRGTTLTVSS
VL: QIVLTQSPAIMSASPGEKVTLTCSASSSVNYMHWYQQKSGTSPKRWIYDTSKLASGVPARFSGSGSGTSYSLTISSMEAEDAATYYCQQWSSNPLTFGAGTKLELK
B2: B03 (antibody, V domains shown)
VH: EVKLVESGGGLVQPGGSLRLSCATSGFTFSDFYMEWVRQPPGKRLEWIAASRDKANDYTTEYSPSVQGRFIVSRDSSQSILYLQMNALRTEDTAIYYCARDVGRSYALDYWGQGTSVTVSS
VL: QVVLTQSPAIMSASPGEKVTMTCSASSSVTYMHWYQQKSGTSPKRWIYVTSKLASGVPTRFSGSGSGTSYSLTISSMEAEDAATYYCQQWSRKPPTFGAGTKLELK
B3: B01 (antibody, V domains shown)
VH: QIQLVQSGPELKKPGETVKISCKASGYTFTNYGMNWVKQAPGKGLKWMGWINPYTGEPTYADDFKGRFAFSVETSASTAYLQINNLKNEDTATYFCARKPPFDYWGQGTTLTVSS
VL: DIVMTQAAPSVPVTPGESVSISCRSSKSLLHSNGNTYLYWFLQRPGQSPQILIYRVSNLASGVPDRFSGSGSGTAFTLRISRVEAEDVGVYYCMQHVEYPFTFGSGTKLEIK
B4: B02 (antibody, V domains shown)
VH: EVQLQQSGPELVKPGASVKMSCKASGYTFTSYVMYWVKQKPGQGLEWIGYVNPYNDGTNYNEKFKGKATLTSDKSSSTAYMELSSLTSEDSAVYYCARGAMDYWGQGTSVTVSS
VL: DIVMTQAAPSVPVTPGESVSISCRSSKSLLHSQGNTYLYWFLQRPGQSPQILIYRVSNLASGVPDRFSGSGSGTAFTLRISRVEAEDVGVYYCMQHVEYPFTFGSGTKLEIK
B5: A01 (antibody, V domains shown)
VH: QVQLKESGPGLVAPSQSLSITCTVSGFSLPTSGVHWVRQPPGKGLEWLGVIWAGGDTNYNSALMSRLSISKDNSKSQVFLKMNSLQKDDTAIYYCLGHGHFDVWGAGTTVTVSS
VL: DVVMTQTPLSLPVSLGDQASISCRSSQSLVHSSGNTYLQWYLQKPGQSPGLLIYKVSNRFSGVPDRFSGSGSGTDFTLKISRVEAEDLGVYFCSQTTHVPWTFGGGTKLEIK
B6: A02 (antibody, V domains shown)
VH: QVQLKESGPGLVAPSQSLSITCTVSGFSLTSSGVHWVRQPPGKGLEWLGVIWAGGDTSYNSALMSRLSISKDNSKSQVFLKMNSLQTDDTAMYYCLGHGHLDVWGAGTTVTVSS
VL: DVVMTQTPLSLPVSLGDQASISCRSSQSLVHSSGNTYLHWYLQKPGQSPGLLIYKVSNRFSGVPDRFSGSGSGTDFTLKISRVEAEDLGVYFCSQTTHVPWTFGGGTKLEIK
B7: hzA01-3.1 (antibody, human IgG4 S228P, kappa, V domains shown)
VH: QVQLQESGPGLVKPSETLSLTCTVSGFSLPTSGVHWIRQPPGKGLEWIGVIWAGGDTNYNPSLKSRVTISKDNSKNQVFLKLSSVTAADTAVYYCLGHGHFDVWGQGTLVTVSS
VL: DVVMTQSPLSLPVTLGQPASISCRSSQSLVHSSGNTYLQWYLQRPGQSPGLLIYKVSNRFSGVPDRFSGSGSGTDFTLKISRVEAEDVGVYYCSQTTHVPWTFGQGTKLEIKR
B8: hzA01-3.4 (antibody, human IgG4 S228P, kappa, V domains shown)
VH: QVQLKESGPGLVKPSETLSLTCTVSGFSLPTSGVHWIRQPPGKGLEWIGVIWAGGDTNYNSALMSRVTISKDNSKSQVFLKMSSVTAADTAVYYCLGHGHFDVWGQGTLVTVSS
VL: DVVMTQSPLSLPVTLGQPASISCRSSQSLVHSSGNTYLQWYLQRPGQSPGLLIYKVSNRFSGVPDRFSGSGSGTDFTLKISRVEAEDVGVYYCSQTTHVPWTFGQGTKLEIKR
B9: hzA01-3.3 (antibody, human IgG4 S228P, kappa, V domains shown)
VH: QVQLKESGPGLVKPSETLSLTCTVSGFSLPTSGVHWIRQPPGKGLEWIGVIWAGGDTNYNSALKSRVTISKDNSKSQVFLKLSSVTAADTAVYYCLGHGHFDVWGQGTLVTVSS
VL: DVVMTQSPLSLPVTLGQPASISCRSSQSLVHSSGNTYLQWYLQRPGQSPGLLIYKVSNRFSGVPDRFSGSGSGTDFTLKISRVEAEDVGVYYCSQTTHVPWTFGQGTKLEIKR
B10: Chi-A01 (antibody, human IgG4 S228P, kappa, V domains shown)
VH: QVQLKESGPGLVAPSQSLSITCTVSGFSLPTSGVHWVRQPPGKGLEWLGVIWAGGDTNYNSALMSRLSISKDNSKSQVFLKMNSLQKDDTAIYYCLGHGHFDVWGAGTTVTVSS
VL: DVVMTQTPLSLPVSLGDQASISCRSSQSLVHSSGNTYLQWYLQKPGQSPGLLIYKVSNRFSGVPDRFSGSGSGTDFTLKISRVEAEDLGVYFCSQTTHVPWTFGGGTKLEIKR

The target of one experiment is human CD40 (hCD40), full length, on cells (human) (UniProt P25942).
human CD40 (hCD40), full length, on cells (human), sequence (P25942 21-277 limits assumed): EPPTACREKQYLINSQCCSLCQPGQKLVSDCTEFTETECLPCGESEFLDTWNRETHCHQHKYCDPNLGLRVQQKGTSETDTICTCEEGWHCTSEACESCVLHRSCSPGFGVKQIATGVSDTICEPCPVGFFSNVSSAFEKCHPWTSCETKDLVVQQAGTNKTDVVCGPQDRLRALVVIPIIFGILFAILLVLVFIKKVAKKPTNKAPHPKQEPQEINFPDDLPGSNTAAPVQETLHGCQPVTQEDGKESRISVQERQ
Assay: not given
Turning to B1, the IC50; NF-κB luciferase reporter (RLU), 293T-hCD40-NFκB cells stimulated with human CD40L protein 10 µg/mL worked out at 287 ng/mL.
On to B2, for which the IC50; NF-κB luciferase reporter (RLU), 293T-hCD40-NFκB cells stimulated with human CD40L protein 10 µg/mL was determined as 16.2 ng/mL.
Same read-out and setting: as for B3, the figure is 8.16 ng/mL; as for B4, 5.21 ng/mL; as for B5, 2.22 ng/mL.
On to B6, for which the IC50; NF-κB luciferase reporter (RLU), 293T-hCD40-NFκB cells stimulated with human CD40L protein 10 µg/mL was 2.79 ng/mL.

The target of a further experiment is cynoCD40-mFc (monkey (cyno)). In words: flow cytometry, blocking of cynoCD40-mFc (2 µg/mL) binding to CHO-K1-cynoCD40L cells.
cynoCD40-mFc (monkey (cyno)), sequence (chain, as listed by the source limits assumed, form in doubt): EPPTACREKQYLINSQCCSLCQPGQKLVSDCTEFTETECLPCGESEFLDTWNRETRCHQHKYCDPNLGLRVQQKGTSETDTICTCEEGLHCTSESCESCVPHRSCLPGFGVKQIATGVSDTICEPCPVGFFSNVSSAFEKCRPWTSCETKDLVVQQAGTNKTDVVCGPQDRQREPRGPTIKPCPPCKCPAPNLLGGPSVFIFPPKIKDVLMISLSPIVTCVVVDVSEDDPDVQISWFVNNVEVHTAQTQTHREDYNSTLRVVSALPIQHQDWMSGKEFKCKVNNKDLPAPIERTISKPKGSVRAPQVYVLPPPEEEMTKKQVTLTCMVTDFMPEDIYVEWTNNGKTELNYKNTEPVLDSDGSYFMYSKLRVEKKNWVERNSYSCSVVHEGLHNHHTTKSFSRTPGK
As a reminder, the IC50 is the concentration that inhibits the measured activity by half. B7 registered an IC50 of 25.5 nM.
In turn, B8 had an IC50 of 22.9 nM.
In turn, B9 showed an IC50 of 35.8 nM.
In turn, B10 showed an IC50 of 25.2 nM.
